Where no end group is shown, it is not given here.
B1: Phage-2313 (peptide)
peptide: LEKWCMPPWMCSGT
modifications: cysteine pairing not given here; also: displayed on bacteriophage by fusion to pIII
B2: Phage-2315 (peptide)
peptide: EARWCTPPWMCAYM
modifications: cysteine pairing not given here; also: displayed on bacteriophage by fusion to pIII

What follows are binders tested against T1, PSMA Fab (006 PSMA Fab) (assay: clonal phage ELISA; biotinylated PSMA Fab on neutravidin plate pre-incubated with competitor PSMA antigen; anti-M13-HRP detection).
T1 construct: also called Anti-PSMA Fab; anti-PSMA Fab
Protocol: (§1) Clonal phage were harvested as crude supernatants and screened via standard ELISAs. […] Prior to the addition of clonal phage. wells were incubated with blocking buffer and PSMA antigen or blocking buffer alone. Without washing or aspirating, clonal phage supernatants were then added to the wells and incubated for a short time. Wells were then washed followed by detection of bound phage using a horse radish conjugated anti-M13 antibody.

**Q.** How did the “Phage binding ELISA signal, Anti-PSMA Fab in presence of PSMA antigen” value (“Phage binding ELISA signal … of PSMA antigen” for short) turn out when LEKWCTPVWMCEGV [Phage-2318] was run?
**A.** The value was 0.0702.

**Q.** HSHWCIPPWMCTFV [Phage-2324] was tested. Which “Phage binding ELISA signal … of PSMA antigen” value did it give?
**A.** Its value is 0.162.

**Q.** For SDNWCKPKWMCETI [Phage-2319], which “Phage binding ELISA signal … of PSMA antigen” value is on record?
**A.** The value was 0.116.

**Q.** For FVNWCIPTWMCPEI [Phage-2314], which “Phage binding ELISA signal … of PSMA antigen” value is on record?
**A.** Its value is 0.233.

**Q.** B1 was tested. Which “Phage binding ELISA signal … of PSMA antigen” value did it give?
**A.** Its value is 0.0701.

**Q.** How did the “Phage binding ELISA signal … of PSMA antigen” value turn out when LEKWCIPTWMCEMT [Phage-2322] was run?
**A.** Its value is 0.0679.

**Q.** Which “Phage binding ELISA signal … of PSMA antigen” value does the source give for MEQWCIPQWMCSGF [Phage-2317] here?
**A.** The value was 0.0911.

**Q.** For VEKLCIPHWMCEAS [Phage-2325], which “Phage binding ELISA signal … of PSMA antigen” value is on record?
**A.** The value was 0.0647.

**Q.** VSNWCIPRGLCTQM [Phage-2320] was tested. Which “Phage binding ELISA signal … of PSMA antigen” value did it give?
**A.** Its value is 0.0665.

**Q.** For LDKWCIPPWMCETV [Phage-2321], which “Phage binding ELISA signal … of PSMA antigen” value is on record?
**A.** The value was 0.0597.

**Q.** WDHWCTPAWMCFNA [Phage-2323] was tested. Which “Phage binding ELISA signal … of PSMA antigen” value did it give?
**A.** Its value is 0.119.

**Q.** GMLACTPAWMCEGF [Phage-2316] was tested. Which “Phage binding ELISA signal … of PSMA antigen” value did it give?
**A.** The value was 0.0923.

**Q.** Which “Phage binding ELISA signal … of PSMA antigen” value does the source give for GPTLCIPAWMCSGM [Phage-2326] here?
**A.** Its value is 0.0802.

**Q.** How did the “Phage binding ELISA signal … of PSMA antigen” value turn out when B2 was run?
**A.** Its value is 0.0724.

These binders were tested against T2, Anti-PSMA Fab (SEQ ID NOs: 19, 20) (assay: phage binding ELISA on plate-captured PSMA Fab, wells pre-incubated with PSMA antigen as competitor).
T2 construct: Biotinylated and captured on neutravidin coated plates in the phage ELISA; also called 006 PSMA Fab
Protocol: as §1

**Q.** VSAWCIPPWMCGTN [Phage-2237] was tested. Which “Anti-PSMA Fab signal in the presence of PSMA” value (“Anti-PSMA Fab signal” for short) did it give?
**A.** The value was 0.0801.

**Q.** With FNKWCVPAWMCSDM [Phage-2235] as the binder, how does the “Anti-PSMA Fab signal” value read?
**A.** The value was 0.0946.

**Q.** Which “Anti-PSMA Fab signal” value does the source give for PRKWCIPAWMCEII [Phage-2236] here?
**A.** The value was 0.0733.

Each binder was assayed against T1, PSMA Fab (006 PSMA Fab) (assay: clonal phage ELISA; biotinylated PSMA Fab on neutravidin plate, blocking buffer alone; anti-M13-HRP detection;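 note: clonal phage applied as crude supernatants to wells preincubated with blocking buffer, binding read by ELISA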).
Protocol: as §1

**Q.** With LEKWCTPVWMCEGV [Phage-2318] as the binder, how does the “Phage binding ELISA signal, Anti-PSMA Fab” value read?
**A.** Its value is 1.46.

**Q.** Which “Phage binding ELISA signal, Anti-PSMA Fab” value does the source give for HSHWCIPPWMCTFV [Phage-2324] here?
**A.** Its value is 1.45.

**Q.** SDNWCKPKWMCETI [Phage-2319] was tested. Which “Phage binding ELISA signal, Anti-PSMA Fab” value did it give?
**A.** Its value is 1.45.

**Q.** FVNWCIPTWMCPEI [Phage-2314] was tested. Which “Phage binding ELISA signal, Anti-PSMA Fab” value did it give?
**A.** Its value is 1.47.

**Q.** How did the “Phage binding ELISA signal, Anti-PSMA Fab” value turn out when B1 was run?
**A.** The value was 1.47.

**Q.** How did the “Phage binding ELISA signal, Anti-PSMA Fab” value turn out when LEKWCIPTWMCEMT [Phage-2322] was run?
**A.** Its value is 1.45.

**Q.** How did the “Phage binding ELISA signal, Anti-PSMA Fab” value turn out when MEQWCIPQWMCSGF [Phage-2317] was run?
**A.** Its value is 1.46.

**Q.** How did the “Phage binding ELISA signal, Anti-PSMA Fab” value turn out when VEKLCIPHWMCEAS [Phage-2325] was run?
**A.** Its value is 1.45.

**Q.** For VSNWCIPRGLCTQM [Phage-2320], which “Phage binding ELISA signal, Anti-PSMA Fab” value is on record?
**A.** Its value is 1.45.

**Q.** With LDKWCIPPWMCETV [Phage-2321] as the binder, how does the “Phage binding ELISA signal, Anti-PSMA Fab” value read?
**A.** The value was 1.45.

**Q.** WDHWCTPAWMCFNA [Phage-2323] was tested. Which “Phage binding ELISA signal, Anti-PSMA Fab” value did it give?
**A.** The value was 1.45.

**Q.** GMLACTPAWMCEGF [Phage-2316] was tested. Which “Phage binding ELISA signal, Anti-PSMA Fab” value did it give?
**A.** The value was 1.47.

**Q.** GPTLCIPAWMCSGM [Phage-2326] was tested. Which “Phage binding ELISA signal, Anti-PSMA Fab” value did it give?
**A.** Its value is 1.45.

**Q.** B2 was tested. Which “Phage binding ELISA signal, Anti-PSMA Fab” value did it give?
**A.** The value was 1.47.

These binders were tested against T2, Anti-PSMA Fab (SEQ ID NOs: 19, 20) (assay: phage binding ELISA, clonal phage on plate-captured biotinylated PSMA Fab).
Protocol: as §1

**Q.** VSAWCIPPWMCGTN [Phage-2237] was tested. Which “Anti-PSMA Fab (SEQ ID NOs: 19, 20) signal” value did it give?
**A.** Its value is 1.56.

**Q.** With FNKWCVPAWMCSDM [Phage-2235] as the binder, how does the “Anti-PSMA Fab (SEQ ID NOs: 19, 20) signal” value read?
**A.** Its value is 1.56.

**Q.** How did the “Anti-PSMA Fab (SEQ ID NOs: 19, 20) signal” value turn out when PRKWCIPAWMCEII [Phage-2236] was run?
**A.** Its value is 1.56.

From patent US20260242478A1 (published 2026)
